The chains are these.
B1: Myogenin (Homo sapiens), P15173 (parent)
chain: MELYETSPYFYQEPRFYDGENYLPVHLQGFEPPGYERTELTLSPEAPGPLEDKGLGTPEHCPGQCLPWACKVCKRKSVSVDRRRAATLREKRRLKKVNEAFEALKRSTLLNPNQRLPKVEILRSAIQYIERLQALLSSLNQEERDLRYRGGGGPQPGVPSECSSHSASCSPEWGSALEFSANPGDHLLTADPTDAHNLHSLTSIVDSITVEDVSVAFPDETMPN
partner: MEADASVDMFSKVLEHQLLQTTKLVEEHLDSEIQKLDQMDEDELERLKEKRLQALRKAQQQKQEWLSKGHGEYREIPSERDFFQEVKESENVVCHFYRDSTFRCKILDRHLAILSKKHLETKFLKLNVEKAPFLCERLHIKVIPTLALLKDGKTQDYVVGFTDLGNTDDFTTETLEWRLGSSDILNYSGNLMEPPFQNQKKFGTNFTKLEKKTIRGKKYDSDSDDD
B2: Ubiquitin-conjugating enzyme E2 E3 (Homo sapiens), Q969T4 (parent)
chain: MSSDRQRSDDESPSTSSGSSDADQRDPAAPEPEEQEERKPSATQQKKNTKLSSKTTAKLSTSAKRIQKELAEITLDPPPNCSAGPKGDNIYEWRSTILGPPGSVYEGGVFFLDITFSSDYPFKPPKVTFRTRIYHCNINSQGVICLDILKDNWSPALTISKVLLSICSLLTDCNPADPLVGSIATQYLTNRAEHDRIARQWTKRYAT
partner: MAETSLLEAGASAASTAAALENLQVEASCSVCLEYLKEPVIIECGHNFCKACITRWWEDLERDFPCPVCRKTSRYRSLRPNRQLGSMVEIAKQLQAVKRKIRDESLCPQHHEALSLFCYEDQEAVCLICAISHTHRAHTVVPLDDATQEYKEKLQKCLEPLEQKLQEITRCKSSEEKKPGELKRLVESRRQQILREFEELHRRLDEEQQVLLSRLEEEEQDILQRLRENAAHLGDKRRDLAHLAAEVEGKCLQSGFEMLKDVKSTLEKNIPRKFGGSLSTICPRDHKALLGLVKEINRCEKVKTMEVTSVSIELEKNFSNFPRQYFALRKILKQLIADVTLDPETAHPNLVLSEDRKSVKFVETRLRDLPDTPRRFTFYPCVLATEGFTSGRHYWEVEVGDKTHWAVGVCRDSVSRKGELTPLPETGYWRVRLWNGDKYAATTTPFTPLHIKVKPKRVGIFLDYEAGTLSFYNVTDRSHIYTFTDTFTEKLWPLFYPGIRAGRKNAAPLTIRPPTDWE
B3: Protein LDOC1 (Homo sapiens), O95751 (parent)
chain: MVDELVLLLHALLMRHRALSIENSQLMEQLRLLVCERASLLRQVRPPSCPVPFPETFNGESSRLPEFIVQTASYMLVNENRFCNDAMKVAFLISLLTGEAEEWVVPYIEMDSPILGDYRAFLDEMKQCFGWDDDEDDDDEEEEDDY
partner: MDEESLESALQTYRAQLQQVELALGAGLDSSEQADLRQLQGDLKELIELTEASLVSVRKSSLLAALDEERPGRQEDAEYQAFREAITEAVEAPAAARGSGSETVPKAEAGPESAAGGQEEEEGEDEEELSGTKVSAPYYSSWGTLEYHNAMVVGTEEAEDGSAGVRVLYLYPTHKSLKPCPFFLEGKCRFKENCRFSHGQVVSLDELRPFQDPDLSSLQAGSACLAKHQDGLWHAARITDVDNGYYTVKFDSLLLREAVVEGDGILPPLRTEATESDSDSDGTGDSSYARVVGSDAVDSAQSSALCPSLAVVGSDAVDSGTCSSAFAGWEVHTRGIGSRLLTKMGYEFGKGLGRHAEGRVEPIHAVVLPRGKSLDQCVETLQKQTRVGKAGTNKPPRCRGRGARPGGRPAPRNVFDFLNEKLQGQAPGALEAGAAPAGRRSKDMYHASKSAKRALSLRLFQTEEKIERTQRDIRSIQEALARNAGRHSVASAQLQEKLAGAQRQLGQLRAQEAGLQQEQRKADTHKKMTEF
B4: Protein FAM200C (Homo sapiens), Q8IZ13 (parent)
chain: MSKKRKWDDDYVRYWFTCTTEVDGTQRPQCVLCNSVFSNADLRPSKLSDHFNRQHGGVAGHDLNSLKHMPAPSDQSETLKAFGVASHEDTLLQASYQFAYLCAKEKNPHTVAEKLVKPCALEIAQIVLGPDAQKKLQQVPLSDDVIHSRIDEMSQDILQQVLEDIKASPLKVGIQLAETTDMDDCSQLMAFVRYIKEREIVEEFLFCEPLQLSMKGIDVFNLFRDFFLKHKIALDVCGSVCTDGASSMLGENSEFVAYVKKEIPHIVVTHCLLNPHALVIKTLPTKLRDALFTVVRVINFIKGRAPNHRLFQAFFEEIGIEYSVLLFHTEMRWLSRGQILTHIFEMYEEINQFLHHKSSNLVDGFENKEFKIHLAYLADLFKHLNELSASMQRTGMNTVSAREKLSAFVRKFPFWQKRIEKRNFTNFPFLEEIIVSDNEGIFIAAEITLHLQQLSNFFHGYFSIGDLNEASKWILDPFLFNIDFVDDSYLMKNDLAELRASGQILMEFETMKLEDFWCAQFTAFPNLAKTALEILMPFATTYLCELGFSSLLHFKTKSRSCFNLSDDIRVAISKKVPRFSDIIEQKLQLQQKSL
B5: FXYD domain-containing ion transport regulator 3 (Homo sapiens), Q14802 (parent)
chain: MQKVTLGLLVFLAGFPVLDANDLEDKNSPFYYDWHSLQVGGLICAGVLCAMGIIIVMSAKCKCKFGQKSGHHPGETPPLITPGSAQS
partner: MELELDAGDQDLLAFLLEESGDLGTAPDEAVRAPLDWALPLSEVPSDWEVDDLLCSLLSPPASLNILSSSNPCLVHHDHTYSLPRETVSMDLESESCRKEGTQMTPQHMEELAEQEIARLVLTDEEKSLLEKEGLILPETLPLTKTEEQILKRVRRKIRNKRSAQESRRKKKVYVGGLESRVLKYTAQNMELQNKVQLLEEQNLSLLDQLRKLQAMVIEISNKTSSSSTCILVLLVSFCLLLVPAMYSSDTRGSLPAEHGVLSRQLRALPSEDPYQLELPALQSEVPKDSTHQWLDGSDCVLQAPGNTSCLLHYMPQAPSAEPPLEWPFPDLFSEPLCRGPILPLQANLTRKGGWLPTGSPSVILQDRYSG
B6: Ribosome quality control complex subunit TCF25 (Homo sapiens), Q9BQ70 (parent)
chain: MSRRALRRLRGEQRGQEPLGPGALHFDLRDDDDAEEEGPKRELGVRRPGGAGKEGVRVNNRFELINIDDLEDDPVVNGERSGCALTDAVAPGNKGRGQRGNTESKTDGDDTETVPSEQSHASGKLRKKKKKQKNKKSSTGEASENGLEDIDRILERIEDSTGLNRPGPAPLSSRKHVLYVEHRHLNPDTELKRYFGARAILGEQRPRQRQRVYPKCTWLTTPKSTWPRYSKPGLSMRLLESKKGLSFFAFEHSEEYQQAQHKFLVAVESMEPNNIVVLLQTSPYHVDSLLQLSDACRFQEDQEMARDLVERALYSMECAFHPLFSLTSGACRLDYRRPENRSFYLALYKQMSFLEKRGCPRTALEYCKLILSLEPDEDPLCMLLLIDHLALRARNYEYLIRLFQEWEAHRNLSQLPNFAFSVPLAYFLLSQQTDLPECEQSSARQKASLLIQQALTMFPGVLLPLLESCSVRPDASVSSHRFFGPNAEISQPPALSQLVNLYLGRSHFLWKEPATMSWLEENVHEVLQAVDAGDPAVEACENRRKVLYQRAPRNIHRHVILSEIKEAVAALPPDVTTQSVMGFDPLPPSDTIYSYVRPERLSPISHGNTIALFFRSLLPNYTMEGERPEEGVAGGLNRNQGLNRLMLAVRDMMANFHLNDLEAPHEDDAEGEGEWD
partner: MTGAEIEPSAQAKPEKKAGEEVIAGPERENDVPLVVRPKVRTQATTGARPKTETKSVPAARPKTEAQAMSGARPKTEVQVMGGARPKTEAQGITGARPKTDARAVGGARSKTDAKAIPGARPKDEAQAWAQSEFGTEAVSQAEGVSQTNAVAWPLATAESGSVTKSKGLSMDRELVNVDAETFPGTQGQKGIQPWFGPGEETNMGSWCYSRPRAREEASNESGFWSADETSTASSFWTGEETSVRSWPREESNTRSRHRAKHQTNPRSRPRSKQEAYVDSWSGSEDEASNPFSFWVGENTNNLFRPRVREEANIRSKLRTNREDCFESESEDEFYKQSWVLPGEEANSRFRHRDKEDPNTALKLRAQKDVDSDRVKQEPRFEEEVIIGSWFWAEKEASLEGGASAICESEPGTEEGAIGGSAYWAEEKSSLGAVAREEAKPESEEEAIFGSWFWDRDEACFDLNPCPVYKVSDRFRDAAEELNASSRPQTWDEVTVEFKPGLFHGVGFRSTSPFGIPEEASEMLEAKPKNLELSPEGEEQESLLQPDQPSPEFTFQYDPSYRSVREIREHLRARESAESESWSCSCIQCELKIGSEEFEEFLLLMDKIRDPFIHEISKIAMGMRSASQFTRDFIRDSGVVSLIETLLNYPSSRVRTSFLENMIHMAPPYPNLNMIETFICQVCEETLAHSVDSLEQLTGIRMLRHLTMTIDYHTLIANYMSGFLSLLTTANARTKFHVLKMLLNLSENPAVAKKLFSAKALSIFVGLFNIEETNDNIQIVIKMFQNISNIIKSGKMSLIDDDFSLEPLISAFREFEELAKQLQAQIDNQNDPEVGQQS

The first assay covers variants of B1. To be noted: with txnd9_human TXNDC9, O14530.
With P49H, the “effect of a mutation on the interaction” value is given as “with no effect”.

A further assay covers variants of B2. The conditions noted are these: with tri39_human TRIM39, Q9HCM9.
For the variant S117T, the “effect of a mutation on the interaction” value was “with no effect”.

A further assay covers variants of B3. The conditions noted are these: with zgpat_human ZGPAT.
For L12H, the “effect of a mutation on the interaction” value was “disrupting interaction strength”.

Variants of B4 are the subject of the next assay. The conditions noted are these: with mt21a_human METTL21A.
As for M248K, the “effect of a mutation on the interaction” value is “disrupting interaction strength”.

The variants in another assay derive from B5. The conditions noted are these: with creb3_human CREB3, O43889.
For G40S, the “effect of a mutation on the interaction” value was “disrupting interaction strength”.

Variants of B6 are the subject of a further assay. The conditions noted are these: with gasp2_human GPRASP2, Q96D09.
For V526A, the “effect of a mutation on the interaction” value is on record as “with no effect”.
